Data from patent US20200041497, “ANALYTE DETECTION METHOD” (IMPERIAL COLLEGE INNOVATIONS LIMITED, published 2020).

B1: TBA 15-mer (ssDNA)
DNA: GGTTGGTGTGGTTGG
B2: TBA detection probe ii (51-mer) (ssDNA)
DNA: GGTTGGTGTGGTTGGGGGCGGCGACCTAAGGTGTCGTGCGTAAGTTTTTAA
B3: TBA detection probe iii (69-mer) (ssDNA)
DNA: GGTTGGTGTGGTTGGTTTTTTTTTGTCTTTTTTTTTTTTCTGTTTTTAAAAACTTACGCACGACACCTT
B4: AChE detection probe (75-mer) (ssDNA)
DNA: GGTTGACTGTAGCTCTGGCAGACGTAGTGTGAAGGTACCGGGCGGCGACCTAAGGTGTCGTGCGTAAGTTTTTAA

How the values were obtained:
[1] = target: T1, alpha-thrombin (Homo sapiens, UniProt P00734;P00734 P00734:328-363,P00734:364-622); experiment: EMSA; 200 nM TBA, 0-500 nM thrombin; 50 mM Tris, 140 mM NaCl, 1 mM MgCl2 pH 7.4
[2] = target: T1, alpha-thrombin; experiment: nanopore translocation on lambda-DNA carrier; 100 mM KCl, 10 mM Tris, 1 mM EDTA pH 8
[3] = target: acetylcholinesterase (AChE) (UniProt O42275 O42275:24-633); experiment: EMSA; AChE 660 nM, modified aptamer 0-5000 nM; 2.7 mM KCl, 4 mM MgCl2 PBS pH 7.4, 1 h; conditions: tags: Sigma-Aldrich, UK; M.W. 280 kDa as stated; chain copies: 4; aptamer with extension hybridised to lambda-DNA 3' end
Sequence of acetylcholinesterase (AChE) (O42275 24-633, one chain of several): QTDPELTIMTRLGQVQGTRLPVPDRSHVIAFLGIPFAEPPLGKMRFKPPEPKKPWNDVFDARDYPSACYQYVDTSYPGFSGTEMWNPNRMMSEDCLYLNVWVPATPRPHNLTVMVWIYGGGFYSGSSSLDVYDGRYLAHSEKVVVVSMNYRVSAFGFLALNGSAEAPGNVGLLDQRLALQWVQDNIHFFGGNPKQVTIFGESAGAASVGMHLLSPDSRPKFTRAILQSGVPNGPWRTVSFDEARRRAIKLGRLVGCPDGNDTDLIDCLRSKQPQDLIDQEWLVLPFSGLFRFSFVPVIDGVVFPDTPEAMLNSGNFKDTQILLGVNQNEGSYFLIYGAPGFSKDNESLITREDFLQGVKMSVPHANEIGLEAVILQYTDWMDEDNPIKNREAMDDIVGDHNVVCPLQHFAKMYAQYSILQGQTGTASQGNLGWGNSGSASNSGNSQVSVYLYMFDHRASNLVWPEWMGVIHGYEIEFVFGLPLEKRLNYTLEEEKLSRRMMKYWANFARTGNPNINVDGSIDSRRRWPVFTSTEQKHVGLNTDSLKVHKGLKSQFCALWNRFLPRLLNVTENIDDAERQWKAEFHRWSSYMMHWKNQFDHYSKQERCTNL
Method: FIG. 20: Electrophoretic mobility shift assay (EMSA) to confirm the binding of the aptamers to thrombin and AChE targets. All gels shown above include a 25 bp ladder and indicated as M in the gel. (i) Thrombin (750 nM) was incubated with different concentration of modified TBA aptamer (top left) ranging from 0-5000 nM in 140 mM NaCl, 20 mM MgCl2, 20 mM PBS buffer pH 7.4 for 45 mins. The 7 lanes on the gel represent the following concentrations of aptamer (from left to right): 0, 50, 100, 250, 500, 1000 and 5000 nM. The samples were then loaded on a 10% native polyacrylamide cast gel and ran for 75 min at 80V and stained with SYBR gold and imaged under UV. […] (ii) modified TBA (200 nM) was then incubated with different concentration of thrombin in the same binding buffer as (i) for 45 min. The […] consist of different thrombin concentration from left to right: 0, 250, 500, 1000, 1500, 2500, 5000 and 7500 nM. The samples were then loaded to a 10% native polyacrylamide cast gels and ran for 75 min at 80V and stained with SYBR gold and imaged. (iii) AChE (660 nM) was incubated with different concentration of modified AChE aptamer ranging from 0-5000 nM in 2.7 mM KCl, 4 mM MgCl2 PBS buffer pH 7.4 for 1 hour. […]

| Binder | binding result [2] | other results |
| --- | --- | --- |
| B1 | – | binding result [1]: binds |
| B2 | binds | – |
| B3 | binds | – |
| B4 | – | binding result [3]: binds |
